Results on 1 substance are retold here after article PMC6029366.

This assay deals with M1R-TEV-tTA fusion protein.

For “β-arrestin-TEV protease (from UniProt P32121 1-409) (natural protein)”, the TANGO β-arrestin recruitment assay, luciferase reporter (RLU), HTLA cells treated with the muscarinic agonist carbachol stood at 7.4 fold.
